B1: Recombinant human CD206 (receptor)
chain: LLDTRQFLIYNEDHKRCVDAVSPSAVQTAACNQDAESQKFRWVSESQIMSVAFKLCLGVPSKTDWVAITLYACDSKSEFQKWECKNDTLLGIKGEDLFFNYGNRQEKNIMLYKGSGLWSRWKIYGTTDNLCSRGYEAMYTLLGNANGATCAFPFKFENKWYADCTSAGRSDGWLWCGTTTDYDTDKLFGYCPLKFEGSESLWNKDPLTSVSYQINSKSALTWHQARKSCQQQNAELLSITEIHEQTYLTGLTSSLTSGLWIGLNSLSFNSGWQWSDRSPFRYLNWLPGSPSAEPGKSCVSLNPGKNAKWENLECVQKLGYICKKGNTTLNSFVIPSESDVPTHCPSQWWPYAGHCYKIHRDEKKIQRDALTTCRKEGGDLTSIHTIEELDFIISQLGYEPNDELWIGLNDIKIQMYFEWSDGTPVTFTKWLRGEPSHENNRQEDCVVMKGKDGYWADRGCEWPLGYICKMKSRSQGPEIVEVEKGCRKGWKKHHFYCYMIGHTLSTFAEANQTCNNENAYLTTIEDRYEQAFLTSFVGLRPEKYFWTGLSDIQTKGTFQWTIEEEVRFTHWNSDMPGRKPGCVAMRTGIAGGLWDVLKCDEKAKFVCKHWAEGVTHPPKPTTTPEPKCPEDWGASSRTSLCFKLYAKGKHEKKTWFESRDFCRALGGDLASINNKEEQQTIWRLITASGSYHKLFWLGLTYGSPSEGFTWSDGSPVSYENWAYGEPNNYQNVEYCGELKGDPTMSWNDINCEHLNNWICQIQKGQTPKPEPTPAPQDNPPVTEDGWVIYKDYQYYFSKEKETMDNARAFCKRNFGDLVSIQSESEKKFLWKYVNRNDAQSAYFIGLLISLDKKFAWMDGSKVDYVSWATGEPNFANEDENCVTMYSNSGFWNDINCGYPNAFICQRHNSSINATTVMPTMPSVPSGCKEGWNFYSNKCFKIFGFMEEERKNWQEARKACIGFGGNLVSIQNEKEQAFLTYHMKDSTFSAWTGLNDVNSEHTFLWTDGRGVHYTNWGKGYPGGRRSSLSYEDADCVVIIGGASNEAGKWMDDTCDSKRGYICQTRSDPSLTNPPATIQTDGFVKYGKSSYSLMRQKFQWHEAETYCKLHNSLIASILDPYSNAFAWLQMETSNERVWIALNSNLTDNQYTWTDKWRVRYTNWAADEPKLKSACVYLDLDGYWKTAHCNESFYFLCKRSDEIPATEPPQLPGRCPESDHTAWIPFHGHCYYIESSYTRNWGQASLECLRMGSSLVSIESAAESSFLSYRVEPLKSKTNFWIGLFRNVEGTWLWINNSPVSFVNWNTGDPSGERNDCVALHASSGFWSNIHCSSYKGYICKRPKIIDAKPTHELLTTKADTRKMDPSK
notes: Bought protein, amine-coupled to a CM5 chip (about 5000 RU)
B2: CD206 mouse protein (receptor)
chain: LDARQFLIYNEDHKRCVDALSAISVQTATCNPEAESQKFRWVSDSQIMSVAFKLCLGVPSKTDWASVTLYACDSKSEYQKWECKNDTLFGIKGTELYFNYGNRQEKNIKLYKGSGLWSRWKVYGTTDDLCSRGYEAMYSLLGNANGAVCAFPFKFENKWYADCTSAGRSDGWLWCGTTTDYDKDKLFGFCPLHFEGSERLWNKDPLTGILYQINSKSALTWHQARASCKQQNADLLSVTEIHEQMYLTGLTSSLSSGLWIGLNSLSVRSGWQWAGGSPFRYLNWLPGSPSSEPGKSCVSLNPGKNAKWENLECVQKLGYICKKGNNTLNPFIIPSASDVPTGCPNQWWPYAGHCYRIHREEKKIQKYALQACRKEGGDLASIHSIEEFDFIFSQLGYEPNDELWIGLNDIKIQMYFEWSDGTPVTFTKWLPGEPSHENNRQEDCVVMKGKDGYWADRACEQPLGYICKMVSQSHAVVPEGADKGCRKGWKRHGFYCYLIGSTLSTFTDANHTCTNEKAYLTTVEDRYEQAFLTSLVGLRPEKYFWTGLSDVQNKGTFRWTVDEQVQFTHWNADMPGRKAGCVAMKTGVAGGLWDVLSCEEKAKFVCKHWAEGVTRPPEPTTTPEPKCPENWGTTSKTSMCFKLYAKGKHEKKTWFESRDFCKAIGGELASIKSKDEQQVIWRLITSSGSYHELFWLGLTYGSPSEGFTWSDGSPVSYENWAYGEPNNYQNVEYCGELKGDPGMSWNDINCEHLNNWICQIQKGKTLLPEPTPAPQDNPPVTADGWVIYKDYQYYFSKEKETMDNARAFCKKNFGDLATIKSESEKKFLWKYINKNGGQSPYFIGMLISMDKKFIWMDGSKVDFVAWATGEPNFANDDENCVTMYTNSGFWNDINCGYPNNFICQRHNSSINATAMPTTPTTPGGCKEGWHLYKNKCFKIFGFANEEKKSWQDARQACKGLKGNLVSIENAQEQAFVTYHMRDSTFNAWTGLNDINAEHMFLWTAGQGVHYTNWGKGYPGGRRSSLSYEDADCVVVIGGNSREAGTWMDDTCDSKQGYICQTQTDPSLPVSPTTTPKDGFVTYGKSSYSLMKLKLPWHEAETYCKDHTSLLASILDPYSNAFAWMKMHPFNVPIWIALNSNLTNNEYTWTDRWRVRYTNWGADEPKLKSACVYMDVDGYWRTSYCNESFYFLCKKSDEIPATEPPQLPGKCPESEQTAWIPFYGHCYYFESSFTRSWGQASLECLRMGASLVSIETAAESSFLSYRVEPLKSKTNFWIGMFRNVEGKWLWLNDNPVSFVNWKTGDPSGERNDCVVLASSSGLWNNIHCSSYKGFICKMPKIIDPVTTHSSITTKADQRKMDPQPKGSSKA
notes: Bought protein coated on a 96 well plate (1 ug per well); also called mouse CD206 protein; murine CD206

What was measured:
[1] = molecular target: T1, DOTA-MART-1 (conjugated with the chelator DOTA (no radiometal stated); attachment site not stated); test: SPR (Biacore T200), CD206 immobilized on CM5 chip, peptide as analyte
T1 construct: also called MART-1 peptide with DOTA

[2] = molecular target: T2, [68Ga]MART-1 (conjugated with the chelator DOTA complexed with 68Ga; attachment site not stated); test: protein plate binding assay on coated mouse CD206, gamma counting
T2 construct: Synthetic control peptide with DOTA, radiolabeled with 68Ga under the same conditions as RP832c; also called 68Ga-labeled DOTA-MART-1; control tracer

Row | Binder | binding result [1] | binding result [2]
1 | B1 | no binding (tested: 0.5 uM-10 uM) | –
2 | B2 | – | no binding (tested: 50 nM)

Reference: patent publication US20250161505A1 (RIPTIDE BIOSCIENCE, published 2025)
